# Measurements: paper PMC8878332
# Molecular target: Human plasminogen (human)
# Assay: ELISA; plasminogen immobilised on plate wells (1 ug in 100 uL PBS), blocked with 1% gelatin; AdcA 0-1 uM in PBS, 1.5 h at 37 C; bound AdcA detected with rabbit anti-AdcA serum; apparent KD from the fit to total binding saturation (GraphPad Prism); MntC run as control; EACA (0.1-10 mM) or NaCl (25-800 mM) added in further panels
substance,measurement,value
"Staphylococcus aureus zinc transport protein AdcA, recombinant full-length protein (natural protein)",Kd,45.1 nM
